Experimental findings from EP4644426A1 (Gan & Lee Pharmaceuticals Co., Ltd., dated 2025) are described below.

B1: 24B6-sy (antibody, V domains shown)
VH: EVQLQESGGDLVKPGGSLKLSCAASGFTFSSYGMSWVRQTPDKRLEWVATISSGGSFTYYPDSVKGRFTISRDNAKNTLYLQMSSLKSEDTAMYYCASLTSEGYAMEYWGQGTSVTVSS
VL: DIVLTQSPASLAVSLGQRATISCRASKSVSTSGYSHMHWYQQKLGQPPKLLIYLASNLESGVPARFSGSGSGTDFTLNIHPVEEEDAATYYCQHSRELPYTFGGGTKLEIK
B2: 17E10-sy (antibody, V domains shown)
VH: EVQLEESGPGLVKPSQSLSLTCSVTGYSITSGFYWNWIRQFPGNKLEWMGYISFDGRHNYNPSLKNRFSITRDTSKNQFFLKLTSVTAEDTATYYCARDLITTVYYYPMDYWGQGTSVTVSS
VL: DIVMTQSHKFMSTSVGDRVSITCKASQDVGTAVDWYQQKTGQSPKLLIYWASTRHTGVPDRFTGSGSGTDFTLTISNVQSEDLADYFCQQYSNYPLTFGAGTKLELK
B3: 17E3C10-sy (antibody, V domains shown)
VH: QVKLQESGPELRKPGETVYISCKASGYTFTNYGVNWVKQAPGKGLKWMGWINTYTGEPIYADDFKGRFAFSLETSANTAYLQISNLTNEDTATYFCARLYLYGNTYDYYAMDYWGQGTSVTVSS
VL: DIVLTQTPSSMYASLGERVTITCKASQDISTYLSWFQQKPGKSPKTLIYRANRLIDGVPSRFSGSGSGQDFSLTISSLEYEDMGVYYCLQYDDLNTFGGGTKLEIK
B4: 14F3-sy (antibody, V domains shown)
VH: QVQLQQSGAELVRPGTSVTVSCKASGYAFSNYLIEWVNQRPGQGLEWIGVINPGSGYTNYNENFKDKATLTADTSSSTAYMQLSSLTSDDSAVYFCARTYGKYGGAMDFWGQGTSVTVSS
VL: DIVMTQTPKFLLVSAGDRVTITCKASQSVSNDVAWYQQKPGQSPKLLIYYISNRYTGVPDRFTGSGYGTDFTFTINTVQAEDLAVYFCQQDYSSPPTFGGGTKLEIK
B5: chimeric antibody 24B6 (antibody, V domains shown)
VH: B1 VH
VL: B1 VL
B6: chimeric antibody 29E10C4 (antibody, V domains shown)
VH: QVKLEESGAELVRPGTSVKVSCKASGYAFTDYFIEWIKQRPGQGLEWIGVINPGNDVTNYNEKFKGKATLTVDKSSTTAYMQLSSLTSDDSAVYFCTRSAGNYENSMDFWGQGTSVTVSS
VL: DIVLTQSPKFLLVSAGDRVTITCKASQSVSNDVGWYQQKPGQSPKLLIYYTSNRYTGVPDRFTGSGYGTDFTFTISSVQAEDLAVYFCQQDYHFPLTFGAGTKLELK
B7: chimeric antibody 11E8 (antibody, V domains shown)
VH: EVKLQESGPELVKTGASVKISCKASGYSFTGYFMNWVKQSHGKSLEWIGFINCYNGATSYNQKFKGKATFTVDASSSSAYMQFNSLTSEDSAVYYCARTISTGDSFDYWGQGSTLTVSS
VL: DIVMTQSTSYLSVSLGGRVTITCKASDHINNWLAWYQQKPGDAPSLLISGASRLETGVPSRFSGSGSGKDYTLSITSLQTEDVATYYCQQYWTTPFTFGSGTKLEIK
B8: chimeric antibody 19C9C10 (antibody, V domains shown)
VH: EVKLEESGAELVKTGASVKLSCTASGFNIKDTYMHWVKQRPEQGLEWIGRIDPANDNTKYDPKFQGRATVTADTSSNTAYLQLISLTSEDTAVYYCAGDYDGYAMDYWGQGTSVTVSS
VL: DIVMTQTTSSLSVSLGGKVTITCKASQDINKYVAWFQHKPGKGPRLLMHYTSTLEPGIPSRFSGSGSGRDYSFTISNLEPEDIATYYCLQYDNLLTFGGGTKLEIK
B9: chimeric antibody 3B3 (antibody, V domains shown)
VH: EVQLEESGADLVRPGTSVKVSCKASGYAFTNYLIDWLKQRPGQGLEWIGVINPGSGITNYNEKFKGKATLTTDTSSSTAYMQLTNLTSDDSAVYFCARGDGTYYEDFLDYWGQGTSVTVSS
VL: DIVLTQTTSSIYTSLGERVTITCKASQDINSYLSWFQQRPGRSPKTLIYRANRLMDGVPSRFSGSGSGRDFSLTISSLDYEDMGIYYCLQYDEFPLTFGAGTKLELK
B10: chimeric antibody 17E3C10 (antibody, V domains shown)
VH: B3 VH
VL: B3 VL
B11: chimeric antibody 14F3 (antibody, V domains shown)
VH: B4 VH
VL: B4 VL
B12: chimeric antibody 17E10 (antibody, V domains shown)
VH: B2 VH
VL: B2 VL
B13: Osocimab (antibody, V domains shown)
VH: EVQLLESGGGLVQPGGSLRLSCAASGFTFSQYGMDWVRQAPGKGLEWVSGIGPSGGSTVYADSVKGRFTISRDNSKNTLYLQMNSLRAEDTAVYYCTRGGPYYYYGMDVWGQGTTVTVSS
VL: DIQMTQSPSSLSASVGDRVTITCQASQDISNYLNWYQQKPGKAPKLLIYDASNLETGVPSRFSGSGSGTDFTFTISSLQPEDIATYYCQQADSFPVTFGGGTKVEIK
B14: humanized antibody 14F3-Z1 (antibody, human IgG1, kappa, V domains shown)
VH: QVQLVQSGAEVKKPGASVKVSCKASGYAFSNYLIEWVGQAPGQGLEWMGVINPGSGYTNYNENFKDRVTMTAHTSISTAYMELSRLRSDDTAVYFCARTYGKYGGAMDFWGQGTLVTVSS
VL: DIQMTQSPSSLSASVGDRVTITCKASQSVSNDVAWYQQKPGKAPKLLIYYISNRYTGVPSRFSGSGSGTDFTFTISSLQPEDIATYFCQQDYSSPPTFGQGTKLEIKR
B15: humanized antibody 14F3-Z4 (antibody, human IgG1, kappa, V domains shown)
VH: B14 VH with A16S, G38R, M70I, H73D, T74E, I76T, R85S, D89E, L115T
VL: B14 VL with S10F, F73L, I83F
B16: humanized antibody 14F3-Z3 (antibody, human IgG1, kappa, V domains shown)
VH: B14 VH with A16S, G38R, M70I, H73D, T74E, I76T, R85S, D89E, F95Y, L115T
VL: B14 VL with S10F, F73L, I83F, F87Y
B17: humanized antibody 14F3-4 (antibody, human IgG1, kappa, V domains shown)
VH: B14 VH with A28T, S30T, G38R, M48I, V68A, M70L, H73D, L115T
VL: DIVMTQSPDSLAVSLGERATINCKASQSVSNDVAWYQQKPGQPPKLLIYYISNRYTGVPDRFSGSGSGTDFTLTISSLQAEDVAVYFCQQDYSSPPTFGGGTKLEIKR
B18: humanized antibody 14F3-2 (antibody, human IgG1, kappa, V domains shown)
VH: B14 VH with A28T, S30T, G38R, A72R, H73D, F95Y, L115T
VL: B17 VL
B19: humanized antibody 14F3-Z2 (antibody, human IgG1, kappa, V domains shown)
VH: B14 VH with A72R
VL: B14 VL with F87Y
B20: humanized antibody 14F3-1 (antibody, human IgG1, kappa, V domains shown)
VH: B14 VH with A28T, S30T, G38R, A72R, H73D, F95Y, L115T
VL: B17 VL with F87Y
notes: To be verified
B21: humanized antibody 14F3-3 (antibody, human IgG1, kappa, V domains shown)
VH: B14 VH with A28T, S30T, G38R, M48I, V68A, M70L, H73D, L115T
VL: B17 VL with F87Y

Changes are numbered by the printed parent chain.

One assay has as its target T1, human FXIa factor (human, UniProt P03951 19-625). Kind of assay: cell-based or functional assay.
In the case of B1, the “OD405nm, S2366 activity assay, antibody at 20µg/mL” value came out at 0.268 OD405nm.
On the same count and under the same terms, next, B2: 0.189 OD405nm; B3: 0.414 OD405nm.
Same read-out and setting: next, B4: 0.211 OD405nm.

The target of another assay is T1, human FXIa factor. Kind of assay: cell-based or functional assay. The source holds these as a separate data set.
B5: the “IC50(nM) from S2366 assay (First Batch)” value was found to be 122 nM.
Turning to B6, the “IC50(nM) from S2366 assay (Second Batch)” value was found to be 34.9 nM.
In the case of B7, the “IC50(nM) from S2366 assay (Third Batch)” value was 93.1 nM.
As for B8, the “IC50(nM) from S2366 assay (Second Batch)” value was found to be 38.5 nM.
As to B9, the “IC50(nM) from S2366 assay (Fourth Batch)” value was 42.4 nM.
As for B10, the “IC50(nM) from S2366 assay (Second Batch)” value was 44.4 nM.
For B11, the “IC50(nM) from S2366 assay (First Batch)” value worked out at 78.7 nM.

For a further assay, the target named is T1, human FXIa factor. Kind of assay: cell-based or functional assay. The source holds these as a separate data set.
For B5, the “FXIa Kit Activity Assay (nM), IC50 (First Batch)” value turned out to be 6.7 nM.
For B6, the “FXIa Kit Activity Assay (nM), IC50 (Second Batch)” value stood at 0.219 nM.
On to B7, for which the “FXIa Kit Activity Assay (nM), IC50 (Third Batch)” value came to 7.8 nM.
As to B8, the “FXIa Kit Activity Assay (nM), IC50 (Second Batch)” value amounted to 1.31 nM.
With B12, the “FXIa Kit Activity Assay (nM), IC50 (First Batch)” value was 11.6 nM.
B10: the “FXIa Kit Activity Assay (nM), IC50 (Second Batch)” value was determined as 0.781 nM.
Consider B11, for which the “FXIa Kit Activity Assay (nM), IC50 (First Batch)” value was 7.77 nM.

Another assay deals with T1, human FXIa factor. Kind of assay: cell-based or functional assay. This is another data set of the same source.
In the case of B13, the “IC50 (nM) from S2366 Assay” value came to 226 nM.
Still for that read-out and setting: next, B14: 54.1 nM.
On the same count and under the same terms, next, B15: 55.8 nM; B16: 56.3 nM; B17: 64.7 nM.
B18: the “IC50 (nM) from S2366 Assay” value turned out to be 43 nM.
The same measure, in the same setting: next, B19: 57.3 nM; B20: 45.4 nM; B21: 52.7 nM.

The target of a further assay is T1, human FXIa factor. Description: cell-based or functional assay. This is another data set of the same source.
B13: the “FXIa kit Activity Assay (nM), IC50” value was found to be 32.5 nM.
On the same count and under the same terms, next, B14: 8.53 nM; B15: 13.6 nM.
Still for that read-out and setting: next, B16: 13.5 nM; B17: 15.7 nM.
On the same count and under the same terms, next, B18: 9.69 nM; B19: 8.79 nM; B20: 7.5 nM.
As for B21, the “FXIa kit Activity Assay (nM), IC50” value is 10.7 nM.

Another assay addresses T1, human FXIa factor. Description: Biacore 8K (SPR), human FXIa in 2-fold dilution series. (In general: In SPR one partner is held on a chip, and binding of the other changes the refractive index at the surface.)
One may read the Kd as the free concentration of one partner at which half of the binding sites on the other are occupied at equilibrium, for simple one-to-one binding. In general, koff refers to the first-order rate constant of dissociation. A lower koff goes with a long-lived complex. For orientation: kon means a measure of how fast the partners come together. Lower therefore signals slower complex formation. With B13, the affinity, expressed as Kd, was 6.37 nM; the koff stood at 0.00411 s⁻¹; the kon was found to be 645000 M⁻¹ s⁻¹.
The matching figures for B20: 0.000809 nM, 1.05e-05 s⁻¹ and 1.3e+07 M⁻¹ s⁻¹.
